Laboratory results: publication PMC10401862, “A high-throughput dual system to screen polyphosphate kinase mutants for efficient ATP regeneration in L-theanine biocatalysis” (Biotechnology for Biofuels and Bioproducts, 2023)

B1: ChPPK (Cytophaga hutchinsonii ATCC 33406) (protein)
chain: MATDFSKLSKYVETLRVKPKQSIDLKKDFDTDYDHKMLTKEEGEELLNLGISKLSEIQEKLYASGTKSVLIVFQAMDAAGKDGTVKHIMTGLNPQGVKVTSFKVPSKIELSHDYLWRHYVALPATGEIGIFNRSHYENVLVTRVHPEYLLSEQTSGVTAIEQVNQKFWDKRFQQINNFEQHISENGTIVLKFFLHVSKKEQKKRFIERIELDTKNWKFSTGDLKERAHWKDYRNAYEDMLANTSTKQAPWFVIPADDKWFTRLLIAEIICTELEKLNLTFPTVSLEQKAELEKAKAELVAEKSSD
notes: synthesized gene expressed in E. coli BL21(DE3) from pXMJ-19, Ni-NTA purified
B2: ChPPK (Cytophaga hutchinsonii ATCC 33406; K103E) (protein)
chain: MATDFSKLSKYVETLRVKPKQSIDLKKDFDTDYDHKMLTKEEGEELLNLGISKLSEIQEKLYASGTKSVLIVFQAMDAAGKDGTVKHIMTGLNPQGVKVTSFEVPSKIELSHDYLWRHYVALPATGEIGIFNRSHYENVLVTRVHPEYLLSEQTSGVTAIEQVNQKFWDKRFQQINNFEQHISENGTIVLKFFLHVSKKEQKKRFIERIELDTKNWKFSTGDLKERAHWKDYRNAYEDMLANTSTKQAPWFVIPADDKWFTRLLIAEIICTELEKLNLTFPTVSLEQKAELEKAKAELVAEKSSD
notes: as for B1
B3: ChPPK (Cytophaga hutchinsonii ATCC 33406; D82N) (protein)
chain: MATDFSKLSKYVETLRVKPKQSIDLKKDFDTDYDHKMLTKEEGEELLNLGISKLSEIQEKLYASGTKSVLIVFQAMDAAGKNGTVKHIMTGLNPQGVKVTSFKVPSKIELSHDYLWRHYVALPATGEIGIFNRSHYENVLVTRVHPEYLLSEQTSGVTAIEQVNQKFWDKRFQQINNFEQHISENGTIVLKFFLHVSKKEQKKRFIERIELDTKNWKFSTGDLKERAHWKDYRNAYEDMLANTSTKQAPWFVIPADDKWFTRLLIAEIICTELEKLNLTFPTVSLEQKAELEKAKAELVAEKSSD
notes: as for B1

Each protein was assayed on Nc1ncnc2c1ncn2[C@@H]1O[C@H](COP(=O)(O)OP(=O)(O)O)[C@@H](O)[C@H]1O (assay: purified protein). Conditions: 100 mM Tris-HCl pH 8.0, 35 °C, MgCl2, ADP 0.1 to 5 mM, polyP6 as co-substrate.
Format: biochemical, Cytophaga hutchinsonii
B1 was tested, and the Km was 1390 ± 70 µM, the kcat was 10 ± 0.13 s⁻¹ and the kcat/Km was 7220 M⁻¹ s⁻¹.
In the case of B2, the Km is reported as 810 ± 120 µM, the kcat is reported as 19.69 ± 0.12 s⁻¹ and the kcat/Km is reported as 24300 M⁻¹ s⁻¹.
Protein B3 has a Km of 950 ± 30 µM, a kcat of 15.05 ± 0.04 s⁻¹ and a kcat/Km of 15800 M⁻¹ s⁻¹.
